Source: the RNAGym collection of RNA variant scans (doi:10.1021/acssynbio.7b00057)

B1: Pistol ribozyme (parent)
chain: GGGUCGUUGUUCCAUAAUCGCGUGGAUAUGGCACGCAAGUUUCUACCGGGCACCGUAAAUGUCCGACUGGAGCCGUUCGGGCGGCUAUAAACAGACCUCAGGCCCGAAGCGUGGCGGCACCUGCCGCCGGUGGUAAAAAAGAUCGGAAGAGCACACGUCU

Variants of: B1
Assay: aptazyme ON/OFF ratio, guanine; higher = stronger switching; co-transcriptional cleavage with and without guanine

Point of comparison: GGGUCGCGGACCUAUAAUCGCGUGGAUAUGGCACGCAAGUUUCUACCGGGCACCGUAAAUGUCCGACUGGAGCCGUUCGGGCGGCUAUAAACAGACCUCAGGCCCGAAGCGUGGCGGCACCUGCCGCCGGUGGUAAAAAAGAUCGGAAGAGCACACGUCU, “aptazyme ON/OFF ratio” value 1.01. Against it:
- GGGUCGCGGACCCAUAAUCGCGUGGAUAUGGCACGCAAGUUUCUACCGGGCACCGUAAAUGUCCGACUGGAGCCGUUCGGGCGGCUAUAAACAGACCUCAGGCCCGAAGCGUGGCGGCACCUGCCGCCGGUGGUAAAAAAGAUCGGAAGAGCACACGUCU — higher, 1.04
- GGGUCGCGGAGCCAUAAUCGCGUGGAUAUGGCACGCAAGUUUCUACCGGGCACCGUAAAUGUCCGACUGGAGCCGUUCGGGCGGCUAUAAACAGACCUCAGGCCCGAAGCGUGGCGGCACCUGCCGCCGGUGGUAAAAAAGAUCGGAAGAGCACACGUCU — higher, 1.35
- GGGUCGCGGAGGCAUAAUCGCGUGGAUAUGGCACGCAAGUUUCUACCGGGCACCGUAAAUGUCCGACUGGAGCCGUUCGGGCGGCUAUAAACAGACCUCAGGCCCGAAGCGUGGCGGCACCUGCCGCCGGUGGUAAAAAAGAUCGGAAGAGCACACGUCU — higher, 1.23
- GGGUCGCGGAGACAUAAUCGCGUGGAUAUGGCACGCAAGUUUCUACCGGGCACCGUAAAUGUCCGACUGGAGCCGUUCGGGCGGCUAUAAACAGACCUCAGGCCCGAAGCGUGGCGGCACCUGCCGCCGGUGGUAAAAAAGAUCGGAAGAGCACACGUCU — higher, 1.11
- GGGUCGCGGAGUCAUAAUCGCGUGGAUAUGGCACGCAAGUUUCUACCGGGCACCGUAAAUGUCCGACUGGAGCCGUUCGGGCGGCUAUAAACAGACCUCAGGCCCGAAGCGUGGCGGCACCUGCCGCCGGUGGUAAAAAAGAUCGGAAGAGCACACGUCU — higher, 1.2
- GGGUCGCGGAGCAAUAAUCGCGUGGAUAUGGCACGCAAGUUUCUACCGGGCACCGUAAAUGUCCGACUGGAGCCGUUCGGGCGGCUAUAAACAGACCUCAGGCCCGAAGCGUGGCGGCACCUGCCGCCGGUGGUAAAAAAGAUCGGAAGAGCACACGUCU — higher, 1.11
- GGGUCGCGGAGCGAUAAUCGCGUGGAUAUGGCACGCAAGUUUCUACCGGGCACCGUAAAUGUCCGACUGGAGCCGUUCGGGCGGCUAUAAACAGACCUCAGGCCCGAAGCGUGGCGGCACCUGCCGCCGGUGGUAAAAAAGAUCGGAAGAGCACACGUCU — higher, 1.06
- GGGUCGCGGAGCUAUAAUCGCGUGGAUAUGGCACGCAAGUUUCUACCGGGCACCGUAAAUGUCCGACUGGAGCCGUUCGGGCGGCUAUAAACAGACCUCAGGCCCGAAGCGUGGCGGCACCUGCCGCCGGUGGUAAAAAAGAUCGGAAGAGCACACGUCU — higher, 1.28
- GGGUCGCGGACUGAUAAUCGCGUGGAUAUGGCACGCAAGUUUCUACCGGGCACCGUAAAUGUCCGACUGGAGCCGUUCGGGCGGCUAUAAACAGACCUCAGGCCCGAAGCGUGGCGGCACCUGCCGCCGGUGGUAAAAAAGAUCGGAAGAGCACACGUCU — higher, 1.18
- GGGUCGCGGACUAAUAAUCGCGUGGAUAUGGCACGCAAGUUUCUACCGGGCACCGUAAAUGUCCGACUGGAGCCGUUCGGGCGGCUAUAAACAGACCUCAGGCCCGAAGCGUGGCGGCACCUGCCGCCGGUGGUAAAAAAGAUCGGAAGAGCACACGUCU — higher, 1.1
- GGGUCGCGGACUUAUAAUCGCGUGGAUAUGGCACGCAAGUUUCUACCGGGCACCGUAAAUGUCCGACUGGAGCCGUUCGGGCGGCUAUAAACAGACCUCAGGCCCGAAGCGUGGCGGCACCUGCCGCCGGUGGUAAAAAAGAUCGGAAGAGCACACGUCU — higher, 1.06
- GGGUCGCGGAGUGAUAAUCGCGUGGAUAUGGCACGCAAGUUUCUACCGGGCACCGUAAAUGUCCGACUGGAGCCGUUCGGGCGGCUAUAAACAGACCUCAGGCCCGAAGCGUGGCGGCACCUGCCGCCGGUGGUAAAAAAGAUCGGAAGAGCACACGUCU — higher, 1.08
- GGGUCGCGGAGUUAUAAUCGCGUGGAUAUGGCACGCAAGUUUCUACCGGGCACCGUAAAUGUCCGACUGGAGCCGUUCGGGCGGCUAUAAACAGACCUCAGGCCCGAAGCGUGGCGGCACCUGCCGCCGGUGGUAAAAAAGAUCGGAAGAGCACACGUCU — higher, 1.17
- GGGUCGCGGAGUAAUAAUCGCGUGGAUAUGGCACGCAAGUUUCUACCGGGCACCGUAAAUGUCCGACUGGAGCCGUUCGGGCGGCUAUAAACAGACCUCAGGCCCGAAGCGUGGCGGCACCUGCCGCCGGUGGUAAAAAAGAUCGGAAGAGCACACGUCU — higher, 1.07
- GGGUCGCGGAGGUAUAAUCGCGUGGAUAUGGCACGCAAGUUUCUACCGGGCACCGUAAAUGUCCGACUGGAGCCGUUCGGGCGGCUAUAAACAGACCUCAGGCCCGAAGCGUGGCGGCACCUGCCGCCGGUGGUAAAAAAGAUCGGAAGAGCACACGUCU — higher, 1.36
- GGGUCGCGGAGGGAUAAUCGCGUGGAUAUGGCACGCAAGUUUCUACCGGGCACCGUAAAUGUCCGACUGGAGCCGUUCGGGCGGCUAUAAACAGACCUCAGGCCCGAAGCGUGGCGGCACCUGCCGCCGGUGGUAAAAAAGAUCGGAAGAGCACACGUCU — higher, 1.23
- GGGUCGCGGAGGAAUAAUCGCGUGGAUAUGGCACGCAAGUUUCUACCGGGCACCGUAAAUGUCCGACUGGAGCCGUUCGGGCGGCUAUAAACAGACCUCAGGCCCGAAGCGUGGCGGCACCUGCCGCCGGUGGUAAAAAAGAUCGGAAGAGCACACGUCU — higher, 1.11
- GGGUCGCGGACGGAUAAUCGCGUGGAUAUGGCACGCAAGUUUCUACCGGGCACCGUAAAUGUCCGACUGGAGCCGUUCGGGCGGCUAUAAACAGACCUCAGGCCCGAAGCGUGGCGGCACCUGCCGCCGGUGGUAAAAAAGAUCGGAAGAGCACACGUCU — higher, 1.22
- GGGUCGCGGACGUAUAAUCGCGUGGAUAUGGCACGCAAGUUUCUACCGGGCACCGUAAAUGUCCGACUGGAGCCGUUCGGGCGGCUAUAAACAGACCUCAGGCCCGAAGCGUGGCGGCACCUGCCGCCGGUGGUAAAAAAGAUCGGAAGAGCACACGUCU — higher, 1.24
- GGGUCGCGGACGAAUAAUCGCGUGGAUAUGGCACGCAAGUUUCUACCGGGCACCGUAAAUGUCCGACUGGAGCCGUUCGGGCGGCUAUAAACAGACCUCAGGCCCGAAGCGUGGCGGCACCUGCCGCCGGUGGUAAAAAAGAUCGGAAGAGCACACGUCU — higher, 1.14
- GGGUCGCGGCUAGAUAAUCGCGUGGAUAUGGCACGCAAGUUUCUACCGGGCACCGUAAAUGUCCGACUGGAGCCGUUCGGGCGGCUAUAAACAGACCUCAGGCCCGAAGCGUGGCGGCACCUGCCGCCGGUGGUAAAAAAGAUCGGAAGAGCACACGUCU — higher, 1.1
- GGGUCGCGGCUAAAUAAUCGCGUGGAUAUGGCACGCAAGUUUCUACCGGGCACCGUAAAUGUCCGACUGGAGCCGUUCGGGCGGCUAUAAACAGACCUCAGGCCCGAAGCGUGGCGGCACCUGCCGCCGGUGGUAAAAAAGAUCGGAAGAGCACACGUCU — higher, 1.28
- GGGUCGCGGAGAUAUAAUCGCGUGGAUAUGGCACGCAAGUUUCUACCGGGCACCGUAAAUGUCCGACUGGAGCCGUUCGGGCGGCUAUAAACAGACCUCAGGCCCGAAGCGUGGCGGCACCUGCCGCCGGUGGUAAAAAAGAUCGGAAGAGCACACGUCU — higher, 1.12
- GGGUCGCGGAGAGAUAAUCGCGUGGAUAUGGCACGCAAGUUUCUACCGGGCACCGUAAAUGUCCGACUGGAGCCGUUCGGGCGGCUAUAAACAGACCUCAGGCCCGAAGCGUGGCGGCACCUGCCGCCGGUGGUAAAAAAGAUCGGAAGAGCACACGUCU — higher, 1.13
- GGGUCGCGGAGAAAUAAUCGCGUGGAUAUGGCACGCAAGUUUCUACCGGGCACCGUAAAUGUCCGACUGGAGCCGUUCGGGCGGCUAUAAACAGACCUCAGGCCCGAAGCGUGGCGGCACCUGCCGCCGGUGGUAAAAAAGAUCGGAAGAGCACACGUCU — higher, 1.12
- GGGUCGCGGCUCCAUAAUCGCGUGGAUAUGGCACGCAAGUUUCUACCGGGCACCGUAAAUGUCCGACUGGAGCCGUUCGGGCGGCUAUAAACAGACCUCAGGCCCGAAGCGUGGCGGCACCUGCCGCCGGUGGUAAAAAAGAUCGGAAGAGCACACGUCU — higher, 1.34
- GGGUCGCGGACAAAUAAUCGCGUGGAUAUGGCACGCAAGUUUCUACCGGGCACCGUAAAUGUCCGACUGGAGCCGUUCGGGCGGCUAUAAACAGACCUCAGGCCCGAAGCGUGGCGGCACCUGCCGCCGGUGGUAAAAAAGAUCGGAAGAGCACACGUCU — higher, 1.14
- GGGUCGCGGACAGAUAAUCGCGUGGAUAUGGCACGCAAGUUUCUACCGGGCACCGUAAAUGUCCGACUGGAGCCGUUCGGGCGGCUAUAAACAGACCUCAGGCCCGAAGCGUGGCGGCACCUGCCGCCGGUGGUAAAAAAGAUCGGAAGAGCACACGUCU — higher, 1.05
- GGGUCGCGGACAUAUAAUCGCGUGGAUAUGGCACGCAAGUUUCUACCGGGCACCGUAAAUGUCCGACUGGAGCCGUUCGGGCGGCUAUAAACAGACCUCAGGCCCGAAGCGUGGCGGCACCUGCCGCCGGUGGUAAAAAAGAUCGGAAGAGCACACGUCU — higher, 1.15
- GGGUCGCGGACUCAUAAUCGCGUGGAUAUGGCACGCAAGUUUCUACCGGGCACCGUAAAUGUCCGACUGGAGCCGUUCGGGCGGCUAUAAACAGACCUCAGGCCCGAAGCGUGGCGGCACCUGCCGCCGGUGGUAAAAAAGAUCGGAAGAGCACACGUCU — higher, 1.04
- GGGUCGCGGACGCAUAAUCGCGUGGAUAUGGCACGCAAGUUUCUACCGGGCACCGUAAAUGUCCGACUGGAGCCGUUCGGGCGGCUAUAAACAGACCUCAGGCCCGAAGCGUGGCGGCACCUGCCGCCGGUGGUAAAAAAGAUCGGAAGAGCACACGUCU — higher, 1.18
- GGGUCGCGGACACAUAAUCGCGUGGAUAUGGCACGCAAGUUUCUACCGGGCACCGUAAAUGUCCGACUGGAGCCGUUCGGGCGGCUAUAAACAGACCUCAGGCCCGAAGCGUGGCGGCACCUGCCGCCGGUGGUAAAAAAGAUCGGAAGAGCACACGUCU — higher, 1.13
- GGGUCGCGGACCGAUAAUCGCGUGGAUAUGGCACGCAAGUUUCUACCGGGCACCGUAAAUGUCCGACUGGAGCCGUUCGGGCGGCUAUAAACAGACCUCAGGCCCGAAGCGUGGCGGCACCUGCCGCCGGUGGUAAAAAAGAUCGGAAGAGCACACGUCU — higher, 1.03
- GGGUCGCGGACCAAUAAUCGCGUGGAUAUGGCACGCAAGUUUCUACCGGGCACCGUAAAUGUCCGACUGGAGCCGUUCGGGCGGCUAUAAACAGACCUCAGGCCCGAAGCGUGGCGGCACCUGCCGCCGGUGGUAAAAAAGAUCGGAAGAGCACACGUCU — higher, 1.02
- GGGUCGCGGCUACAUAAUCGCGUGGAUAUGGCACGCAAGUUUCUACCGGGCACCGUAAAUGUCCGACUGGAGCCGUUCGGGCGGCUAUAAACAGACCUCAGGCCCGAAGCGUGGCGGCACCUGCCGCCGGUGGUAAAAAAGAUCGGAAGAGCACACGUCU — higher, 2.01
